Assay results reported in patent US20210155689A1 (SHANGHAI PHARMAEXPLORER, published 2021).

What was measured:
[1] = molecular target: T1, human LAG-3 ECD (antigen protein of the affinity test) (human, UniProt P18627 23-450); assay: SPR, CM5 chip, antibody captured by anti-human Fc IgG, antigen in flow, 1:1 fit
T1 sequence: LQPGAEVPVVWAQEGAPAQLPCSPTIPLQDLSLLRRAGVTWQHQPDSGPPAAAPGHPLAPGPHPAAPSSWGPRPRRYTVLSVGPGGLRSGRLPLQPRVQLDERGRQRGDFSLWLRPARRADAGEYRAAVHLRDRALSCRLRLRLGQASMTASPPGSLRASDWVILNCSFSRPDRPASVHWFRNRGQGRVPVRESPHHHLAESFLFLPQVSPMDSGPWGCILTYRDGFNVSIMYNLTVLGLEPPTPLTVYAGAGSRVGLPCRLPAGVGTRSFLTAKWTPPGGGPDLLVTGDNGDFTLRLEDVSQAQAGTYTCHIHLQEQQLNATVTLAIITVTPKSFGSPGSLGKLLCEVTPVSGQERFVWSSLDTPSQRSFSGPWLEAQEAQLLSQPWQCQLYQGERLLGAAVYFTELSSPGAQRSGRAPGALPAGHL
Procedure: First, anti-human Fc IgG was immobilized on the surface of the CM5 chip to 6000-10000 RU by amino coupling method, with FC1 as the reference channel. The coupling process was as follows: a freshly prepared 1:1 mixture of 50 mM NHS and 200 mM EDC was activated for 7 minutes, then injected with 10-50 ug/ml anti-human Fc IgG diluted in 10 mM sodium acetate ph5.0 buffer. The remaining activated sites were blocked with 1M ethanolamine. Then, HBS-EP+ buffer was used to dilute the antibody to be tested to 5 ug/ml (adjustable according to the capture level) and the antibodies were captured on the chip at a flow rate of 10 ul/min to obtain a response value of about 100˜300 RU. Then the antigen protein was diluted to 100 nM (the highest concentration was tentatively 100 nM), and flew through the chip surface at a flow rate of 30 ul/min. If enough signal value was obtained, the antigen-protein was diluted by several concentration gradients, and flew through the chip surface respectively. At the end of each cycle, the chip surface was regenerated with 10 mM Glycine at pH 1.5. The kinetic rate constant needed to be subtracted from the blank control, and the data was fitted with the global fit analysis method 1:1 combination model. The dissociation equilibrium rate constant (KD) was calculated according to the following formula: KD=kd/ka.

[2] = molecular target: T2, human LAG-3 on cells (HEK293-hLAG-3 stable cell line) (human, UniProt P18627 23-525); assay: FACS, HEK293-hLAG-3, antibody 0.000 nM
T2 sequence: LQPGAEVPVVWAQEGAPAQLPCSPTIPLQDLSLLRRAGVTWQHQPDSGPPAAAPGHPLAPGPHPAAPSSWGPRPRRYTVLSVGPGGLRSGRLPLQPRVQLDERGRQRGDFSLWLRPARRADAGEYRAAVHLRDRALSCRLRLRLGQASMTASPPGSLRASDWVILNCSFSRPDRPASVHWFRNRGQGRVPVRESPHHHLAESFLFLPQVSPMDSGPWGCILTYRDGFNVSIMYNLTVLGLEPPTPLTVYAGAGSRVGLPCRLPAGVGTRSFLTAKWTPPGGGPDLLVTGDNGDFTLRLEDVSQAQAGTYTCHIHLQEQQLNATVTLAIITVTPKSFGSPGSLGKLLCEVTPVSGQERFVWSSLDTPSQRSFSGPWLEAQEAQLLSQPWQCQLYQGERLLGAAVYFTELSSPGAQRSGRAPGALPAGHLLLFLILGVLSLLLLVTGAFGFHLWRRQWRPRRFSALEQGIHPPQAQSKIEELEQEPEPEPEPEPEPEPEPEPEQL
Excerpt: (§1) The pIRES plasmid with the monkey-derived full-length gene was transfected into the HEK293 cell line to construct a HEK293 stable cell line containing monkey LAG-3 (herein referred to as HEK293-cLAG-3 stable cell line). The HEK293-hLAG-3 stable cell line and HEK293-cLAG-3 stable cell line were expanded in a T-75 cell culture flask to a 90% confluence. The medium was aspirated, and the cells were washed with HBSS (Hanks' Balanced Salt Solution) 1-2 times, then treated with a enzyme-free cell dissociation fluid (Versene solution: Life technology) and the cells were collected. The cells were washed with HBSS buffer for 1-2 times. After counted, the cells were diluted with HBSS to 1-2×10⁶ cells per ml, added with 1% goat serum blocking solution, incubated on ice for 20-30 minutes, and then washed with HBSS for 2 times by centrifugation. The collected cells were suspended in the FACS buffer (HBSS+1% BSA) to 2×10⁶ cells/ml, added as 100 microliters per well to a 96-well FACS reaction plate, added with 100 microliters per well of the antibody sample to be tested, incubated on ice for 1-2 hours. The plate was washed twice with the FACS buffer by centrifugation, added with 100 microliters of fluorescent (Alexa 488)-labeled secondary antibodies per well, and incubated on ice for 0.5-1.0 hours. The plate was washed 2-3 times with FACS buffer by centrifugation, added with 100 μl fixative solution (4% Paraformaldehyde) per well to suspend the cells. 5-10 minutes later, it was washed 1-2 times with FACS buffer by centrifugation. The cells were suspended with 100 microliters of FACS buffer, FACS (FACSCalibur, BD) was used for detection and the results were analyzed.

[3] = molecular target: T2, human LAG-3 on cells (HEK293-hLAG-3 …); assay: FACS, HEK293-hLAG-3, antibody 8.000 nM
Excerpt: as §1

[4] = molecular target: T3, monkey LAG-3 on cells (HEK293-cLAG-3 stable cell line) (monkey, UniProt P18627 24-525 (human entry)); assay: FACS, HEK293-cLAG-3, antibody 0.064 nM
T3 construct: Full-length monkey (Chinese monkey) LAG-3 gene expressed on HEK293 cells
T3 chain: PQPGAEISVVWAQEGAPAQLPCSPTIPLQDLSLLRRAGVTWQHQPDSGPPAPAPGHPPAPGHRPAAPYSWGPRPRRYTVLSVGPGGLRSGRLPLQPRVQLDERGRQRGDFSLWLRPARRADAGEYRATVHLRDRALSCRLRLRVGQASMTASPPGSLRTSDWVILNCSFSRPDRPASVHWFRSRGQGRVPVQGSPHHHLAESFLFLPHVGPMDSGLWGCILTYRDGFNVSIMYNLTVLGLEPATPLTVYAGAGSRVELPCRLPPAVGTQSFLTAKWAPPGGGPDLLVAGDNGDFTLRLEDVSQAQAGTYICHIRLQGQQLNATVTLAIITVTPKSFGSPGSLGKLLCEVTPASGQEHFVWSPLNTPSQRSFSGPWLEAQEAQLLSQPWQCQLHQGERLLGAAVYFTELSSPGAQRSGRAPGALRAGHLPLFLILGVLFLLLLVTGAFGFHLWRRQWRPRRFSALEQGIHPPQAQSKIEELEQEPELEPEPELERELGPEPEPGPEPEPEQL
Excerpt: as §1

B1: 556F6B8 mouse-human chimeric antibody (antibody, V domains shown)
VH: RVQLKQSGPGLVQPSQSLSITCTVSGFSLIKYGVHWVRQSPGEGLEWLGVIWRGGITDYNAAFMSRLSITKDNSKSQVFFKMNSLQADDTAIYYCAKWDGPLAMDYWGQGTSVTVSS
VL: DIVMTQSHKFLSTSVGDRVSITCKASQDVGTTVAWYQQKPGQSPKLLIYWASTRHTGVPDRFTGSGSGTDFTLTISNVQSEDLADYFCQQYSSYPYTFGGGTKLEIK
notes: also called mAb123-556F6B8; 556F8B8
B1 gave a Kd [1] of 3.77 nM, a koff [1] of 0.000459 s⁻¹ and a kon [1] of 122000 M⁻¹ s⁻¹. For the same binder, the Mean fluorescence intensity [2] was 3.3, the Mean fluorescence intensity [3] was 93.5 and the Mean fluorescence intensity [4] was 4.45.

B2: 105F1E10 mouse-human chimeric antibody (antibody, V domains shown)
VH: EVQLQQSGPELVKPGASVKMSCRASGYTFTDFKMHWMKQSHGKSLEWIGYIAPNNGGTAYNQKFRGKATLTVNESSNTAYMELRSLTSEDSAVYYCVDWDDVDYWGQGTTLTVSS
VL: DIKMTQSPSSMYASLGERVTITCKASQDINSYLSWFQQKSGKSPKTLIYRANRLVDGVPSRFSGSGSGQDYSLTISSLEYEDMGIYYCLQYVEFPLTFGAGTKLELK
notes: also called mAb009-105F1E10
For B2, the Kd [1] was 2.51 nM, the koff [1] was 9.66e-05 s⁻¹ and the kon [1] was 38500 M⁻¹ s⁻¹. The Mean fluorescence intensity [2] was 2.6, the Mean fluorescence intensity [3] was 99.4 and the Mean fluorescence intensity [4] was 3.54.

B3: 405B8H3 mouse-human chimeric antibody (antibody, V domains shown)
VH: QVQLQQSGAELVRPGASVTLSCKASGYTFTDYEMHWVKQTPVHGLEWIGATDPETGNSAYNQKFKGKAIMTADKSSSTAYMELRSLTSEDSAVYYCISTGWNDWGQGTSLTVSS
VL: DIKMTQSPSSMYASLGERVTITCKASQDINSYLSWFQQKPGKSPKTLIYRADRLLDGVPSRFSGSGSGQDYSLTISSLEYGDMGIYYCLQYDEFPYTFGGGTKLEIK
notes: also called mAb103-405B8H3
For B3, the Kd [1] was 1.96 nM, the koff [1] was 0.000158 s⁻¹ and the kon [1] was 80400 M⁻¹ s⁻¹. For the same binder, the Mean fluorescence intensity [2] was 2.8, the Mean fluorescence intensity [3] was 137 and the Mean fluorescence intensity [4] was 4.8.

B4: 409B11E12 mouse-human chimeric antibody (antibody, V domains shown)
VH: QVQLQQSGAELVRPGASVTLSCKASGYTFTDYEMHWVKQTTVHGLEWIGATDPETSYSAYNQKFKGKAILTADKSSSTAYMELRSLTSEDSAVYYCIATGWNDWGQGTSLTVSS
VL: DLKMTQSPSSMYASLGERVTITCKASQDINSYLSWFQQKPGKSPKTLIYRANRLLDGVPSRFSGSGSGQDYSLTISSLEYEDMGIYYCLQYDEFPYTFGGGTKLEIK
notes: also called mAb104-409B11E12
B4 gave a Mean fluorescence intensity [2] of 2.8, a Mean fluorescence intensity [3] of 136 and a Mean fluorescence intensity [4] of 4.95.

B5: 409D4E10 mouse-human chimeric antibody (antibody, V domains shown)
VH: QVQLQQSGAELVRPGASVTLSCKASGNTFTDYEMHWVKQTPVHGLEWIGATDPETDNTAYNQKFKGKAILTTDKSSSTAYMELRSLTSEDSAVYYCITSGWNDWGQGTSLTVSS
VL: DIKMTQSPSSMYASLGERVTITCKASQDINSYLSWFQQKPGKSPKTLIYRANRLLDGVPSRFSGSGSGQDYSLTISSLEYEDMGIYYCLQYNEFPYTFGGGTKLEIK
notes: also called mAb112-409D4E10
With B5 the Mean fluorescence intensity [2] was 3, the Mean fluorescence intensity [3] was 129 and the Mean fluorescence intensity [4] was 4.42.
